Results on 19 variants are retold here after the RNAGym collection of RNA variant scans (doi:10.1073/pnas.2313332121).

Fewer inactive variants are shown than the library holds.

B1: TPR 5TU (parent)
chain: GGAUCUUCUCGAUCUAACAAAAAAGACAAAUCUGCCACAAAGCUUGAGAGCAUCUUCGGAUGCAGAGGCGGCAGCCUUCGGUGGCGCGAUAGCGCCAACGUUCUCAACUAUGACACGCAAAACGCGUGCUCCGUUGAAUGGAGUUUAUCAUG

Variants of B1 are the subject of the series. The series can be described thus: polymerase ribozyme fitness, log enrichment relative to wild type (log ratio); higher = more active; in vitro selection for triplet polymerase activity. The procedure, abridged:
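Both subunits of a heterodimeric triplet polymerase ribozyme were given their own mutant library, built by PCR and transcribed. Each library was annealed with a biotinylated primer, the partner subunit and triplets, incubated frozen at −7 °C, and its extended constructs gel-excised, captured on streptavidin beads and amplified by RT-PCR, all in one round done in triplicate. Fitness is the logarithm of genotype enrichment relative to wild-type enrichment, with replicates averaged by inverse-variance weighting. That logarithm is base 2, and Illumina-sequenced genotypes needed ≥10 input reads and ≥1 read per output.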
Take GGAUCUUCUCGAUCUAACAAAAAAGACAAAUCUGCCACAAAACUUGAGAGCCUCUUCGGAUGCAGAGGCGGCAGCCUUCGGUGGCGCGAUAGCGCCAACGUUCUCAACUAUGACACGCAAAACGCGUGCUCCGUUGAAUGGAGUUUAUCAUG [G42A A52C]: the “polymerase ribozyme fitness (log ratio)” value was -3.82.

GGAUCUUCUCGAUCUAACAAAAAAGACAAAUCUGCCACAAAACUUGAGAGUAUCUUCGGAUGCCGAGGCGGCAGCCUUCAGUGGCGCGAUAGCGCCAACGUUCUCAACUAUGACACGCAAAACGCGAGCUCCGUUGAAUGGAGUUUAUCAUG [G42A C51U A64C G80A U127A]: the “polymerase ribozyme fitness (log ratio)” value is no more than -4.2. On to GGAUCUUCUCGAUCUAACAAAAAAGACAAAUCUGCCACAAAACUUGAGAGCAUCUUCGGAUGCAGAGGCGGCAGCCUUCGGUGGCGCGAUAGCGCCAACGUUCUCAACUAUGACACGCAAAACGCGUGCUCCGUUGAAUGGCGUUUAUCAUG [G42A A142C], for which the “polymerase ribozyme fitness (log ratio)” value is -4.17. On to GGAUCUUCUCGAUCUAACAAAAAAGACAAAUCUGCCACAAAACUUGAGAGCAUCUUCGGAUGCAGAGGCGGCAGCCUUCGGUGGCGCGAUAGCGCAAACGUUCUCAACUAUGACACGCAAAGCGCGUGCUCCGUUGAGUGGAGUGUAUCAUG [G42A C96A A122G A138G U145G], for which the “polymerase ribozyme fitness (log ratio)” value is no more than -4.2. As for GGAUCUUCUCGAUCUAACAAAAAAGACAAAUCUGCCACAAUGCUUGAGAGCAUCUUCGGAUGCAGAGGCGGCAGCCUUCGGCGGCGUGAUAGCGCCAACGUUCUCAACUAUGACACGCAAAACGGCUGCUCCGUUGAAUGGAGGUUAUCAUG [A41U U82C C87U C125G G126C U144G], the figure is -2.6; as for GGAUCUUCUCGAUCUAACAAAAAAGACAAAUCUGCCACAAAACUUGCGAGCAUCUUCGGAUGCAGAGGCGGCAGCCUUCGGUGGGGCGAUAGCGCGAACGUUCUCAACUAUGACAAGCAAAACGCGUGCUCCGUUGAAUGGAGUUUUUCAUG [G42A A47C C85G C96G C116A A147U], no more than -4.2; as for GGAUCUUCUCGAUCUAACAAAAAAGACAAAUCUGCCACAAAACUUGAGAGCGUCUUCGGAUGCAGAGGCCGCAGCCUUCGGUGGCGCGAUAGCGCCAACGUUCUCAACUAUGACACGCAAAACGCGUGCUCCGUUGAAUGCAGUUUAUCAUG [G42A A52G G70C G141C], no more than -4.2. As for GGAUCUUCUCGAUCUAACAAAAAAGACAAAUCUGCCACAAAACUUGAGAGCAUCUUCGGAUGCAGAGGCGGCAGGCUUCGGUGGCGCGAUAGCGCGAACGUUCUCAACUAUGACACGCAAAACGCGUGCUCCGUUGAAUGGAGUUUAUCAUG [G42A C75G C96G], the “polymerase ribozyme fitness (log ratio)” value was no more than -4.2.

Take GGAUCUUCUCGAUCUAACAAAAAAGACAAAUCUGCCACAAAACUUGCGAGCAUCUUCGGAUGCAGAGGCGGCAGCCGUCGGUGGCGCGAUAUCGCCAACGUUCUCAACUAUGACACGCAAAACGCGUGCUCCGUUGAAUGGAGUUUAUCAUG [G42A A47C U77G G92U]: the “polymerase ribozyme fitness (log ratio)” value is no more than -4.2. With GGAUCUUCUCGAUCUAACAAAAAAGACAAAUCUGCCACAAAACUUGAAAGCAUCUUCGGAUGCAGAGGCGGCAGCCUUCGGUGGCGCGAUAGCGCCGACGUUCUCAACUAUGACACGCAAAACGCGUGCUCCGUUGAUUGGAGUUUAUCAUG [G42A G48A A97G A138U], the “polymerase ribozyme fitness (log ratio)” value was no more than -4.2. In the case of GGAUCUUCUCGAUCUAACAAAAAAGACAAAUCUGCCACAAUGCAUGAGAGCAUCUUCGGAUGCACAGGCGGCAGCCUUCGGUGGGGCGAUAGCGCCAACGUUCUCAACUAUGACACGCAAAACGCGUGCUCCGUUGAAUGGAUUUUAUCAUG [A41U U44A G65C C85G G143U], the “polymerase ribozyme fitness (log ratio)” value is no more than -4.2.

Consider GGAUCUUCUCGAUCUAACAAAAAAGACAAAUCUGCCACAAUGCUUGAGAGCAUCUUCGGAUGCAGAGGCGGCAGCCUUCGGUGGCGCGAUAGCGCCAACGUUCUCAACUAUGACACGCAAAACGCGUGCUCCGUUGAAUGGAGUAUAUCAUG [A41U U145A], for which the “polymerase ribozyme fitness (log ratio)” value was -0.141.

GGAUCUUCUCGAUCUAACAAAAAAGACAAAUCUGCCACAAUGCUUGAGAGCAUCUUCGGAUGCAGAGGCGGCAGCCUUCGGUGGCGCGAUAGCGCCAACGUUCUCAACUAUGACACGCAAAACGCGUGCUCCGUUGAAUGGAGGUUAUCAUG [A41U U144G]: the “polymerase ribozyme fitness (log ratio)” value came to 0.164. With GGAUCUUCUCGAUCUAACAAAAAAGACAAAUCUGCCACAAAACUUGCGAGCAUCAUCGGAUGCAGAGGCGGCAGCCUUCGGUGGUGCGAUAGCGCCAACGUUCUCAACUAUGACACGCAAAACGCGUGCUCCGUUGAAUGGAGUUUAUCAUG [G42A A47C U55A C85U], the “polymerase ribozyme fitness (log ratio)” value was no more than -4.2. In the case of GGAUCUUCUCGAUCUAACAAAAAAGACAAAUCUGCCACAAUGCUUGAGAGCAUCUUCGGAUGCAGAGGCGGCAGCCUUCGGUGGCGCGAUAGCGCCAACGUUCUCAACUAUGACACGCAAAACGCGUGCUCCGUUGAAUAGAGUUUAUCAUG [A41U G140A], the “polymerase ribozyme fitness (log ratio)” value was -3.78. As to GGAUCUUCUCGAUCUAACAAAAAAGACAAAUCUGCCACAAAACUUGAGAGCAUCUUCGGAUGCAGAGGCGGCAGCCUUCGGUGGCGCGAUAGCGCCAACGUUCUCAACUAUGAGACGCAAAACGCGUGCUCCUUUGAAUGGAGUUUAUCCUG [G42A C114G G133U A150C], the “polymerase ribozyme fitness (log ratio)” value is no more than -4.2. As to GGAUCUUCUCGAUCUAACAAAAAAGACAAAUCUGCCACAAUGCUUGAGAGCAUCUUCGGAUGCAGAGGCGGCAGCCUUCGGUGGCGCGAUAGCGCCAACGUUCUCAACUAAGACACGCAAAACGCGUGCUCCGUUGAAUGGAGUUUAUCAUG [A41U U111A], the “polymerase ribozyme fitness (log ratio)” value is -3.7. As for GGAUCUUCUCGAUCUAACAAAAAAGACAAAUCUGCCACAAAACUUGAGAGCAUCUUCGGAUGCGGAGGCGGCAGCCUUCGGUGGCGCGAUAGCGCCAACGUGCUCAACUAUGACACGCAAAACGCGUGCUCCGUUGAAUGGAGUUUAUCAUG [G42A A64G U102G], the figure is no more than -4.2; as for GGAUCUUCUCGAUCUAACAAAAAAGACAAAUCUGCCACAAUGCUUGAGAGCAUCUUCGGAUGCAGAGGCGGCAGCCUUCGGUGGCGCGAUAGCGCCAACGUUCUCAACUAUGACACGCAAAACGCGUGCUCCGUUAAAUGGAGUUUAUCAUG [A41U G136A], 0.0389.
